Data reported in publication PMC11310195.
Where “and” joins values, the source holds several entries; their conditions need not be identical. Equal entries are not always repeated.

How the values were obtained:
[1] = target: fluorescein-labelled Pdcd4 N-terminal domain (residues 1-156) (human) (UniProt Q53EL6); assay: fluorescence polarisation; fluorescence anisotropy binding assay: 20 nM FL-Pdcd4-NTD, 40S titrated, with or without eIFs (1 uM eIFs 1, 1A, 5, 550 nM eIF2-TC and eIF3); 20 mM Tris-acetate pH 7.5, 70 mM KCl, 2 mM MgCl2, 0.1 mM spermidine, 1 mM DTT, 10% glycerol, 0.1 mg/ml BSA, 0.5 mM ATP-Mg; 37 C 10 min, then over 20 min at room temperature; fraction bound fitted with a quadratic equation
[2] = target: 40S small ribosomal subunit (salt-washed) (human) (UniProt P23396); assay: fluorescence polarisation; anisotropy competition: 20 nM FL-Pdcd4-NTD + 50 nM 40S competed off by unlabeled Pdcd4 or its variants; 37 °C 10 min, then over 20 min at room temperature; buffer of the native gel assay
[3] = target: 40S small ribosomal subunit (salt-washed) (human) (UniProt P23396); assay: fluorescence polarisation; fluorescence anisotropy competition assay in solution: 20 nM FL-Pdcd4-NTD + 50 nM 40S competed off by 0-1000 nM unlabeled Pdcd4 or its variants; Kd of the labeled NTD set to 5 nM; same buffer as the native gel assay; 10 min at 37 C, then over 20 min at room temperature
[4] = target: 40S small ribosomal subunit (salt-washed) (human) (UniProt P23396); assay: fluorescence polarisation; anisotropy binding: 20 nM FL-Pdcd4-NTD with various amounts of 40S in the presence of saturating eIF1 and eIF1A
[5] = target: 43S pre-initiation complex (40S + eIFs 1, 1A, 5, 3j, eIF2-TC and eIF3) (human) (UniProt P23396); assay: fluorescence polarisation; anisotropy binding: 20 nM FL-Pdcd4-NTD with various amounts of 40S, in the absence or presence of 43S components (1 μM eIFs 1, 1A, 5, 550 nM eIF2-TC and eIF3); buffer of the native gel assay
[6] = target: 43S pre-initiation complex (40S + eIFs 1, 1A, 5, 3j, eIF2-TC and eIF3) (human) (UniProt P23396); assay: native gel or EMSA; 100 nM fluorescein-labeled Pdcd4 with 250 nM 40S, 43S or 48S; 37 °C 10 min; 20 mM Tris-acetate pH 7.5, 70 mM KCl, 2 mM MgCl2, 0.1 mM spermidine, 1 mM DTT, 10% glycerol, 0.1 mg/ml BSA, 0.5 mM ATP-Mg; 1% agarose gel in THEM buffer, 4 °C

| Kd [1] [nM] | Ki [3] | Substance | further results |
| --- | --- | --- | --- |
| 71 | – | 40S subunit with saturating eIF1 and eIF1A (from UniProt P23396 1-243; P41567 1-113; P47813 1-144) (complex) | – |
| 3000 | – | 43S pre-initiation complex (40S with eIF1, eIF1A, eIF5, eIF2 ternary complex and eIF3) (from UniProt P23396 1-243; P41567 1-113; P47813 1-144; P55010 1-431; P55884 158-814; O75821 1-320; Q13347 1-325; O75822 1-258) | – |
| – | – | Pdcd4 (programmed cell death 4), wild type, residues 1-469 (from UniProt Q53EL6 1-469) (natural protein) | Ki [2]: 23 nM |
| – | 1600 nM and 1380 nM and 1490 nM | Pdcd4 K114A/K115A (from UniProt Q53EL6 1-469) (natural protein) | – |
| – | 864 nM and 791 nM and 828 nM | Pdcd4 V123A/W124A (from UniProt Q53EL6 1-469) (natural protein) | – |
| – | 21.2 nM and 20.3 nM and 20.1 nM | Pdcd4-NTD (residues 1-156), unlabeled (from UniProt Q53EL6 1-156) (domain or fragment) | Ki [2]: 21 nM |
| – | – | fluorescein-labeled Pdcd4-NTD (FL-Pdcd4-NTD, residues 1-156) (from UniProt Q53EL6 1-156) (domain or fragment) | fold reduction in affinity (against the 40S alone) [4]: > 10 fold; fold reduction in affinity (against the 40S alone) [5]: > 100 fold; percent binding compared to the 40S lane [6]: < 20% |
| – | – | fluorescently modified recombinant Pdcd4 (FL-Pdcd4), full length (from UniProt Q53EL6 1-469) (natural protein) | percent binding compared to the 40S lane [6]: < 20% |
| 5 | – | human 40S small ribosomal subunit (from UniProt P23396 1-243) (complex) | – |
| – | 24.7 nM and 21 nM and 23.3 nM | wild-type Pdcd4 (residues 1-469), unlabeled (from UniProt Q53EL6 1-469) (natural protein) | – |
